As usually defined, the Kd is the constant that tells how readily two partners part at equilibrium. Read a high Kd as lower affinity.

This is an account of results in publication PMC3718021 (2013).

Common to all, as to experiment: high-speed cosedimentation
Assay [1] concerns the target platelet actin (85% β-actin, 15% γ-actin) (Homo sapiens, UniProt P60709).
A further assay has as its target γ-actin (Mus musculus, UniProt P63260).
The target in a further assay is α-skeletal F-actin (Oryctolagus cuniculus, UniProt P68135).

B1: fascin-2 (protein)
chain: MPTNGLHQVLKIQFGLVNDADRYLTAESFGFKVNASAASLKRKQIWVLEPDPGQGTAVLFRSSHLGRYLSAEEDGRVACEMDQPGRDCRFLVLPQPDGRWVLQSEPHGRFFGGIEDRLSCFATAISPAELWTVHLAIHPQAHLLSVSRRRYVHLCLQEDEMAADGDMPWGVDALVTLIFQSRRYCLKSYDSRYLRSDGRLVWEPEAHACYTLEFKAGKLAFKDCDGRYLAPVGPAGTLKAGRNTRPSKDELFDLEQSHPQVVLVAANRRYISVRQGINVSANQDEELGHETFLMQIDQETKKCTFYSSTGGYWTLVTHGGIQATATQVSANTMFEIEWHGRRVALKASNGRFVCMKKNGQLAAISDFVGEDELFTLKLINRPLLVLRGLDGFVCHRRGSNQLDTNRSTYDVFHLSFRDGAYQIRGRGGGFWYTGSHGSVCSDGDLAEDFLFEFRERGRLAIRALSGKYLRGGASGLLRADADLPVGEALWEY
Regarding B1, the values for the dissociation constant (Kd) (in assay [1]; with γ-actin) were 4.15 µM and 6.17 µM, respectively.

B2: fascin-2 S39A (protein)
chain: MPTNGLHQVLKIQFGLVNDADRYLTAESFGFKVNASAAALKRKQIWVLEPDPGQGTAVLFRSSHLGRYLSAEEDGRVACEMDQPGRDCRFLVLPQPDGRWVLQSEPHGRFFGGIEDRLSCFATAISPAELWTVHLAIHPQAHLLSVSRRRYVHLCLQEDEMAADGDMPWGVDALVTLIFQSRRYCLKSYDSRYLRSDGRLVWEPEAHACYTLEFKAGKLAFKDCDGRYLAPVGPAGTLKAGRNTRPSKDELFDLEQSHPQVVLVAANRRYISVRQGINVSANQDEELGHETFLMQIDQETKKCTFYSSTGGYWTLVTHGGIQATATQVSANTMFEIEWHGRRVALKASNGRFVCMKKNGQLAAISDFVGEDELFTLKLINRPLLVLRGLDGFVCHRRGSNQLDTNRSTYDVFHLSFRDGAYQIRGRGGGFWYTGSHGSVCSDGDLAEDFLFEFRERGRLAIRALSGKYLRGGASGLLRADADLPVGEALWEY
B2 gave a Kd in assay [1] of 3.91 µM.

B3: fascin-2 (protein)
chain: MPTNGLHQVLKIQFGLVNDADRYLTAESFGFKVNASAASLKRKQIWVLEPDPGQGTAVLFRSSHLGRYLSAEEDGRVACEMDQPGRDCRFLVLPQPDGRWVLQSEPHGRFFGGIEDRLSCFATAISPAELWTVHLAIHPQAHLLSVSRRRYVHLCLQEDEMAADGDMPWGVDALVTLIFQSRRYCLKSYDSRYLRSDGRLVWEPEAHACYTLEFKAGKLAFKDCDGRYLAPVGPAGTLKAGRNTRPSKDELFDLEQSHPQVVLVAANRRYISVRQGINVSANQDEELGHETFLMQIDQETKKCTFYSSTGGYWTLVTHGGIQATATQVSANTMFEIEWHGRRVALKASNGRFVCMKKNGQLAAISDFVGEDELFTLKLINRPLLVLRGLDGFVCHRRGSNQLDTNRSTYDVFHLSFRDGAYQIRGRGGGFWYTGSHGSVCSDGDLAEDFLFEFRERGRLAIRALSGKYLRGGASGLLRADADLPVGEALWEY
modifications: N-terminal flag tag, phalloidin-stabilized F-actin
With B3, in the assay with α-skeletal F-actin, the dissociation constant (Kd) is 4.95 µM.

B4: fascin-2 p.R109H (protein)
chain: MPTNGLHQVLKIQFGLVNDADRYLTAESFGFKVNASAASLKRKQIWVLEPDPGQGTAVLFRSSHLGRYLSAEEDGRVACEMDQPGRDCRFLVLPQPDGRWVLQSEPHGHFFGGIEDRLSCFATAISPAELWTVHLAIHPQAHLLSVSRRRYVHLCLQEDEMAADGDMPWGVDALVTLIFQSRRYCLKSYDSRYLRSDGRLVWEPEAHACYTLEFKAGKLAFKDCDGRYLAPVGPAGTLKAGRNTRPSKDELFDLEQSHPQVVLVAANRRYISVRQGINVSANQDEELGHETFLMQIDQETKKCTFYSSTGGYWTLVTHGGIQATATQVSANTMFEIEWHGRRVALKASNGRFVCMKKNGQLAAISDFVGEDELFTLKLINRPLLVLRGLDGFVCHRRGSNQLDTNRSTYDVFHLSFRDGAYQIRGRGGGFWYTGSHGSVCSDGDLAEDFLFEFRERGRLAIRALSGKYLRGGASGLLRADADLPVGEALWEY
As for B4, the Kd in the assay with α-skeletal F-actin is 5.97 µM.
